# Measured values published in the supplement of paper PMC10567573.
# B1: EHMT1 (parent)
# chain: FHKDCASRVNNASYCPHCGEESSK
# Variants of: B1
# Assay: protein stability index of a GFP-peptide fusion (GPS, HEK-293T) (PSI 1-6); higher = more stable
# Conditions: c terminus: a fixed tail appended
# 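Also: lentivirally expressed fusions sorted by FACS into six bins by GFP to DsRed ratio, PSI derived from sequencing read proportions per bin multiplied by bin number.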
row,Variant,protein stability index
1,FHKDCASRVNNASLCPHCGEESSK [Y14L],3.82
2,FHKDCASRVNNASYCAHCGEESSK [P16A],3.24
3,FHKDCASRVNNASYCCHCGEESSK [P16C],3.11
4,FHKDCASRVWNASYCPHCGEESSK [N10W],2.37
5,FHKDCASRVANASYCPHCGEESSK [N10A],3.6
6,FHKDCASRVKNASYCPHCGEESSK [N10K],3.1
7,FHKDCASRVLNASYCPHCGEESSK [N10L],3.31
8,FHKDCASRVPNASYCPHCGEESSK [N10P],3.33
9,FHKDCASRVVNASYCPHCGEESSK [N10V],2.92
10,FHKDCASRVQNASYCPHCGEESSK [N10Q],3.52
11,FHKDCASRVMNASYCPHCGEESSK [N10M],2.98
12,FHKDCASRVENASYCPHCGEESSK [N10E],3.69
13,FHKDCASRVCNASYCPHCGEESSK [N10C],3.75
14,FHKDCASRVGNASYCPHCGEESSK [N10G],3.74
15,FHKDCASRVRNASYCPHCGEESSK [N10R],2.99
16,FHKDCASRVHNASYCPHCGEESSK [N10H],3.94
17,FHKDCASRVYNASYCPHCGEESSK [N10Y],1.95
18,FHKDCASRVDNASYCPHCGEESSK [N10D],3.9
19,FHKDCASRVINASYCPHCGEESSK [N10I],3.08
20,FHKDCASRVTNASYCPHCGEESSK [N10T],3.03
21,FHKDCASRVFNASYCPHCGEESSK [N10F],2.82
22,FHKDCASRVSNASYCPHCGEESSK [N10S],3.24
23,FHKDCASVVNNASYCPHCGEESSK [R8V],3.34
24,FHKDCASGVNNASYCPHCGEESSK [R8G],3.97

row,Variant,protein stability index
1,FHKDCASFVNNASYCPHCGEESSK [R8F],2.35
2,FHKDCASYVNNASYCPHCGEESSK [R8Y],2.63
3,FHKDCASEVNNASYCPHCGEESSK [R8E],2.86
4,FHKDCASQVNNASYCPHCGEESSK [R8Q],3.59
5,FHKDCASWVNNASYCPHCGEESSK [R8W],1.91
6,FHKDCASMVNNASYCPHCGEESSK [R8M],3.37
7,FHKDCASNVNNASYCPHCGEESSK [R8N],3.94
8,FHKDCASCVNNASYCPHCGEESSK [R8C],3.66
9,FHKDCASDVNNASYCPHCGEESSK [R8D],3.43
10,FHKDCASLVNNASYCPHCGEESSK [R8L],3.39
11,FHKDCASTVNNASYCPHCGEESSK [R8T],3.1
12,FHKDCASKVNNASYCPHCGEESSK [R8K],3.46
13,FHKDCASSVNNASYCPHCGEESSK [R8S],3.49
14,FHKDCASHVNNASYCPHCGEESSK [R8H],4.23
15,FHKDCASAVNNASYCPHCGEESSK [R8A],3.78
16,FHKDCASPVNNASYCPHCGEESSK [R8P],3.37
17,FHKDCASIVNNASYCPHCGEESSK [R8I],3.94
18,FHKDCKSRVNNASYCPHCGEESSK [A6K],3.53
19,FHKDCSSRVNNASYCPHCGEESSK [A6S],3.52
20,FHKDCLSRVNNASYCPHCGEESSK [A6L],2.85
21,FHKDCHSRVNNASYCPHCGEESSK [A6H],3.34
22,FHKDCQSRVNNASYCPHCGEESSK [A6Q],4.04
23,FHKDCPSRVNNASYCPHCGEESSK [A6P],3.83
24,FHKDCTSRVNNASYCPHCGEESSK [A6T],3.6

row,Variant,protein stability index
1,FHKDCRSRVNNASYCPHCGEESSK [A6R],2.97
2,FHKDCMSRVNNASYCPHCGEESSK [A6M],3.07
3,FHKDCNSRVNNASYCPHCGEESSK [A6N],3.41
4,FHKDCYSRVNNASYCPHCGEESSK [A6Y],2.26
5,FHKDCWSRVNNASYCPHCGEESSK [A6W],1.96
6,FHKDCGSRVNNASYCPHCGEESSK [A6G],3.59
7,FHKDCISRVNNASYCPHCGEESSK [A6I],3.23
8,FHKDCVSRVNNASYCPHCGEESSK [A6V],3.5
9,FHKDCASRVNNAIYCPHCGEESSK [S13I],2.17
10,FHKDCASRVNNARYCPHCGEESSK [S13R],3.16
11,FHKDCASRVNNAAYCPHCGEESSK [S13A],3.36
12,FHKDCASRVNNAVYCPHCGEESSK [S13V],2.76
13,FHKDCASRVNNAFYCPHCGEESSK [S13F],2.34
14,FHKDCASRVNNAWYCPHCGEESSK [S13W],2.15
15,FHKDCASRVNNAEYCPHCGEESSK [S13E],3.77
16,FHKDCASRVNNALYCPHCGEESSK [S13L],2.62
17,FHKDCASRVNNAKYCPHCGEESSK [S13K],3.46
18,FHKDCASRVNNANYCPHCGEESSK [S13N],3.6
19,FHKDCASRVNNACYCPHCGEESSK [S13C],2.37
20,FHKDCASRVNNAGYCPHCGEESSK [S13G],3.97
21,FHKDCASRVNNADYCPHCGEESSK [S13D],3.81
22,FHKDCASRVNNAYYCPHCGEESSK [S13Y],2.34
23,FHKDCASRVNNAPYCPHCGEESSK [S13P],3.12
24,FHKDCASRVNNAHYCPHCGEESSK [S13H],3.66

row,Variant,protein stability index
1,FHKDCASRVNNAQYCPHCGEESSK [S13Q],3.8
2,FHKDCASRVNNAMYCPHCGEESSK [S13M],3.13
3,FHKDCASRVNNATYCPHCGEESSK [S13T],3.72
4,FHKDCASRVNMASYCPHCGEESSK [N11M],3.36
5,FHKDCASRVNAASYCPHCGEESSK [N11A],2.91
6,FHKDCASRVNEASYCPHCGEESSK [N11E],3.46
7,FHKDCASRVNPASYCPHCGEESSK [N11P],3.25
8,FHKDCASRVNSASYCPHCGEESSK [N11S],3.08
9,FHKDCASRVNKASYCPHCGEESSK [N11K],3.54
10,FHKDCASRVNFASYCPHCGEESSK [N11F],2.48
11,FHKDCASRVNIASYCPHCGEESSK [N11I],2.22
12,FHKDCASRVNWASYCPHCGEESSK [N11W],1.89
13,FHKDCASRVNLASYCPHCGEESSK [N11L],2.53
14,FHKDCASRVNQASYCPHCGEESSK [N11Q],3.47
15,FHKDCASRVNDASYCPHCGEESSK [N11D],3.64
16,FHKDCASRVNCASYCPHCGEESSK [N11C],3.21
17,FHKDCASRVNTASYCPHCGEESSK [N11T],3.21
18,FHKDCASRVNHASYCPHCGEESSK [N11H],3.82
19,FHKDCASRVNVASYCPHCGEESSK [N11V],3.12
20,FHKDCASRVNRASYCPHCGEESSK [N11R],3.47
21,FHKDCASRVNYASYCPHCGEESSK [N11Y],2.68
22,FHKDCASRVNGASYCPHCGEESSK [N11G],3.37
